Results on three substances are retold here after patent US7342091B2, “Soluble cyclic analogues of β amyloid peptide” (Fraunhofer-Gesellschaf zur Forderung der angewandten …, priority 2001, dated 2008).

Bridges are numbered along the chain shown (N, C = ends). Where no end group is shown, it is not given here.

Series [1] is described as follows: Testing of fibril formation by electron microscopy (EM). The class given is physicochemical. To be noted: 450 μM solution in 10 mM phosphate buffer, 150 mM NaCl, 30% acetonitrile, pH 5.5; for fibril formation (EM): after three days incubation. The procedure: (§1) The physicochemical properties of cβ-AP were investigated by FT-IR (Fourier-transform infrared spectrometry) and CD (circular dichroism spectropolarimetry). EM (electron microscopy) and AFM (atomic force microscopy) were used to test the properties of fibrils of cβ-AP128. In the EM studies, 450 μM solutions of cβ-AP128 or β-AP (1-28) (SEQ ID NO: 2) or [Lys^17, Asp^21] β-AP(1-28) (SEQ ID NO: 5) in 10 mM phosphate buffer, 150 mM NaCl and 30% acetonitrile, pH 5.5 were initially incubated for several days and tested for fibril formation.

Series [2] in a line: FT-IR of aged peptide solutions/suspensions (β-pleated sheet conformation). The class given is physicochemical. The note with it: 450 μM solutions/suspensions, 10 mM phosphate buffer, 150 mM NaCl, 30% acetonitrile, pH 5.5. As to the method: as §1
Series [3] is described as follows: CD of peptide alone (β-pleated sheet formation and precipitation). The class given is physicochemical. The note with it: 10 mM phosphate buffer, 150 mM NaCl, 30% acetonitrile, pH 5.5. As to the method: (§2) The effect of cβ-AP128 (SEQ ID NO: 20) on the aggregation and fibril formation of β-AP (1-28) was tested by CD and EM. A solution of 450 μM β-AP (1-28) (SEQ ID NO: […]) and cβ-AP128 (SEQ ID NO: […]) in 10 mM phosphate buffer, 150 mM NaCl and 30% acetonitrile, pH 5.5, was incubated for several days and tested for fibril formation by EM (FIGS. 2A and 2B).

The next series deals with T1, β-AP (1-28) (Homo sapiens, UniProt P05067).
T1 construct: made in house; host or cells: chemical solid-phase peptide synthesis (Boc/Bzl on PAM resin), no expression host
T1 sequence (P05067 672-699 limits assumed): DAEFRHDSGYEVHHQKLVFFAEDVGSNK
Put plainly: Inhibition of the aggregation and fibril formation of β-AP (1-28) by cβ-AP128, tested by CD and EM. The class given is biochemical. To be noted: 450 μM β-AP (1-28) and cβ-AP128, 10 mM phosphate buffer, 150 mM NaCl, 30% acetonitrile, pH 5.5. The procedure: as §2

With β-AP (1-28), in series [1], the “fibril formation (EM)” value was “completely fibrillated”. Further, in series [2], the “conformation by FT-IR after aging” value is reported as “β-pleated sheet conformation”. Further, the “fate after β-pleated sheet formation” value in series [3] is reported as “precipitated out as insoluble amyloid”.

For the substance [Lys^17, Asp^21] β-AP (1-28), the “fibril formation (EM)” value in series [1] was “completely fibrillated”. In series [2], the “conformation by FT-IR after aging” value was “β-pleated sheet conformation”. The “fate after β-pleated sheet formation” value in series [3] is listed as “precipitated out as insoluble amyloid”.

On to “cyclo^17,21 [Lys^17, Asp^21] β-AP (1 to 28) (DAEFRHDSGYEVHHQKKVFFDEDVGSNK; lactam 17-21; listed as Homo sapiens) [cβ-AP128, β-AP (1-28) derivative with lactam bridge between side chains of Lys17 and Asp21]”, for which, in series [1], the “incubation time over which no fibrils were formed (EM)” value was “more than 30 days”. In addition, the “conformation by FT-IR after aging” value in series [2] was “prevents the β-pleated sheet conformation”. The “time without changes of the CD spectra of the mixture with β-AP (1-28)” value in the series with β-AP (1-28) is listed as “more than 1 month”.
